B1: Mb(NRAS_24) with the FG loop of SEQ ID NO: 15 (designed binder)
chain: VSSVPTKLEVVAATPTSLLISWDAPAVTVDFYVITYGETGGYAWAYQEFKVPGSKSTATISGLSPGVDYTITVYASQVIGAIWKYYSPISINYRT
notes: length of the loop entry not visible
B2: Mb(NRAS_24) with the FG loop of SEQ ID NO: 57 (designed binder)
chain: B1 chain with S76Y, G80S, A81H
notes: as for B1
B3: Mb(NRAS_24) with the FG loop of SEQ ID NO: 42 (designed binder)
chain: B1 chain with S76Y, G80E, A81H
notes: as for B1
B4: Mb(NRAS_24) with the FG loop of SEQ ID NO: 38 (designed binder)
chain: B1 chain with S76Y, G80A, A81Y
notes: as for B1
B5: Mb(NRAS_24) with the FG loop of SEQ ID NO: 39 (designed binder)
chain: B1 chain with S76Y, G80D, A81H
notes: as for B1
B6: Mb(NRAS_24) with the FG loop of SEQ ID NO: 50 (designed binder)
chain: B1 chain with S76Y, G80K, A81H
notes: as for B1
B7: Mb(NRAS_24) with the FG loop of SEQ ID NO: 20 (designed binder)
chain: B1 chain with S76Y, V78I, I79K
notes: as for B1
B8: Mb(NRAS_24) with the FG loop of SEQ ID NO: 60 (designed binder)
chain: B1 chain with S76Y, G80T, A81H
notes: as for B1
B9: Mb(NRAS_24) with the FG loop of SEQ ID NO: 18 (designed binder)
chain: B1 chain with S76Y, V78I, I79E
notes: as for B1
B10: Mb(NRAS_24) with the FG loop of SEQ ID NO: 45 (designed binder)
chain: B1 chain with S76Y, W83C
notes: as for B1
B11: Mb(NRAS_24) with the FG loop of SEQ ID NO: 62 (designed binder)
chain: B1 chain with S76Y, G80Y, A81Y
notes: as for B1
B12: Mb(NRAS_24) with the FG loop of SEQ ID NO: 48 (designed binder)
chain: B1 chain with S76Y, G80H, A81S
notes: as for B1
B13: Mb(NRAS_24) with the FG loop of SEQ ID NO: 31 (designed binder)
chain: B1 chain with S76Y, V78T, I79E
notes: as for B1
B14: Mb(NRAS_24) with the FG loop of SEQ ID NO: 28 (designed binder)
chain: B1 chain with S76Y, V78L, I79L
notes: as for B1
B15: Mb(NRAS_24) with the FG loop of SEQ ID NO: 61 (designed binder)
chain: B1 chain with S76Y, G80Y, A81H
notes: as for B1
B16: Mb(NRAS_24) with the FG loop of SEQ ID NO: 52 (designed binder)
chain: B1 chain with S76Y, G80K, A81Y
notes: as for B1
B17: Mb(NRAS_24) with the FG loop of SEQ ID NO: 46 (designed binder)
chain: B1 chain with S76Y, I82L
notes: as for B1
B18: Mb(NRAS_24) with the FG loop of SEQ ID NO: 17 (designed binder)
chain: B1 chain with S76Y, V78I, I79D
notes: as for B1
B19: Mb(NRAS_24) with the FG loop of SEQ ID NO: 43 (designed binder)
chain: B1 chain with S76Y, G80E, A81S
notes: as for B1
B20: Mb(NRAS_24) with the FG loop of SEQ ID NO: 19 (designed binder)
chain: B1 chain with S76Y, V78I, I79H
notes: as for B1
B21: Mb(NRAS_24) with the FG loop of SEQ ID NO: 51 (designed binder)
chain: B1 chain with S76Y, G80K, A81S
notes: as for B1
B22: Mb(NRAS_24) with the FG loop of SEQ ID NO: 23 (designed binder)
chain: B1 chain with S76Y, V78I, I79V
notes: as for B1
B23: Mb(NRAS_24) with the FG loop of SEQ ID NO: 37 (designed binder)
chain: B1 chain with S76Y, G80A, A81S
notes: as for B1
B24: Mb(NRAS_24) with the FG loop of SEQ ID NO: 53 (designed binder)
chain: B1 chain with S76Y, G80L, A81H
notes: as for B1
B25: Mb(NRAS_24) with the FG loop of SEQ ID NO: 55 (designed binder)
chain: B1 chain with S76Y, G80R, A81S
notes: as for B1
B26: Mb(NRAS_24) with the FG loop of SEQ ID NO: 27 (designed binder)
chain: B1 chain with S76Y, V78L, I79H
notes: as for B1
B27: Mb(NRAS_24) with the FG loop of SEQ ID NO: 59 (designed binder)
chain: B1 chain with S76Y, G80S, A81Y
notes: as for B1
B28: Mb(NRAS_24) with the FG loop of SEQ ID NO: 35 (designed binder)
chain: B1 chain with S76Y, V78T, I79Y
notes: as for B1
B29: Mb(NRAS_24) with the FG loop of SEQ ID NO: 56 (designed binder)
chain: B1 chain with S76Y, G80R, A81Y
notes: as for B1
B30: Mb(NRAS_24) with the FG loop of SEQ ID NO: 16 (designed binder)
chain: B1 chain with S76Y, Q77H
notes: as for B1
B31: Mb(NRAS_24) with the FG loop of SEQ ID NO: 32 (designed binder)
chain: B1 chain with S76Y, V78T, I79H
notes: as for B1
B32: Mb(NRAS_24) with the FG loop of SEQ ID NO: 41 (designed binder)
chain: B1 chain with S76Y, G80D, A81Y
notes: as for B1
B33: Mb(NRAS_24) with the FG loop of SEQ ID NO: 58 (designed binder)
chain: B1 chain with S76Y, G80S, A81S
notes: as for B1
B34: Mb(NRAS_24) with the FG loop of SEQ ID NO: 66 (designed binder)
chain: B1 chain with S76Y, V78Y, I79V
notes: as for B1
B35: Mb(NRAS_24) with the FG loop of SEQ ID NO: 29 (designed binder)
chain: B1 chain with S76Y, V78L, I79Y
notes: as for B1
B36: Mb(NRAS_24) with the FG loop of SEQ ID NO: 44 (designed binder)
chain: B1 chain with S76Y, G80E, A81Y
notes: as for B1
B37: Mb(NRAS_24) with the FG loop of SEQ ID NO: 25 (designed binder)
chain: B1 chain with S76Y, V78L, I79D
notes: as for B1
B38: Mb(NRAS_24) with the FG loop of SEQ ID NO: 65 (designed binder)
chain: B1 chain with S76Y, V78Y, I79H
notes: as for B1
B39: Mb(NRAS_24) with the FG loop of SEQ ID NO: 40 (designed binder)
chain: B1 chain with S76Y, G80D, A81S
notes: as for B1
B40: Mb(NRAS_24) with the FG loop of SEQ ID NO: 49 (designed binder)
chain: B1 chain with S76Y, G80H, A81Y
notes: as for B1
B41: Mb(NRAS_24) with the FG loop of SEQ ID NO: 36 (designed binder)
chain: B1 chain with S76Y, G80A, A81H
notes: as for B1
B42: Mb(NRAS_24) with the FG loop of SEQ ID NO: 47 (designed binder)
chain: B1 chain with S76Y, G80H, A81H
notes: as for B1
B43: Mb(NRAS_24) with the FG loop of SEQ ID NO: 26 (designed binder)
chain: B1 chain with S76Y, V78L, I79E
notes: as for B1
B44: Mb(NRAS_24) with the FG loop of SEQ ID NO: 64 (designed binder)
chain: B1 chain with S76Y, V78Y, I79E
notes: as for B1
B45: Mb(NRAS_24) with the FG loop of SEQ ID NO: 24 (designed binder)
chain: B1 chain with S76Y, V78I, I79Y
notes: as for B1
B46: Mb(NRAS_24) with the FG loop of SEQ ID NO: 34 (designed binder)
chain: B1 chain with S76Y, V78T, I79V
notes: as for B1
B47: Mb(NRAS_24) with the FG loop of SEQ ID NO: 21 (designed binder)
chain: B1 chain with S76Y, V78I, I79L
notes: as for B1
B48: Mb(NRAS_24) with the FG loop of SEQ ID NO: 33 (designed binder)
chain: B1 chain with S76Y, V78T, I79L
notes: as for B1
B49: Mb(NRAS_24) with the FG loop of SEQ ID NO: 54 (designed binder)
chain: B1 chain with S76Y, G80R, A81H
notes: as for B1
B50: Mb(NRAS_24) with the FG loop of SEQ ID NO: 30 (designed binder)
chain: B1 chain with S76Y, V78T, I79D
notes: as for B1
B51: Mb(NRAS_24) with the FG loop of SEQ ID NO: 67 (designed binder)
chain: B1 chain with S76Y, V78Y, I79Y
notes: as for B1
B52: Mb(NRAS_24) with the FG loop of SEQ ID NO: 22 (designed binder)
chain: B1 chain with S76Y, V78I, I79R
notes: as for B1
B53: Mb(NRAS_24) with the FG loop of SEQ ID NO: 63 (designed binder)
chain: B1 chain with S76Y, I79S
notes: as for B1

Numbering of substitutions follows the chain as printed.

The values that follow come from patent US20260263609A1 (NEW YORK UNIVERSITY, published 2026).

In the assay the target is T1, NRAS (human, UniProt P01111 1-174, limits assumed).
T1 construct: also called Neuroblastoma-RAS; NRAS (WT)
As to the kind of experiment: yeast display, cells sorted for binding to NRAS (WT).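 Note: Yeast-displayed monobody variants with one or two residue substitutions, monobody sequences read from cells recovered by sorting for binding to wild-type NRAS.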
As to B1, the binding result is reported as “binds”.

As for B2, the binding result is “binds”. As to B3, the binding result was “binds”.

For the molecule B4, the binding result was “binds”. Under B5 stands “binds”; under B6, “binds”. Next, B7: “binds”; B8: “binds”. Next, B9: “binds”; B10: “binds”; B11: “binds”.

Consider B12, for which the binding result is on record as “binds”. Under B13 stands “binds”. Under B14 stands “binds”; under B15, “binds”. Under B16 stands “binds”; under B17, “binds”; under B18, “binds”. With B19, the binding result is “binds”.

For the molecule B20, the binding result is “binds”. Under B21 stands “binds”; under B22, “binds”. Next, B23: “binds”; B24: “binds”.

Consider B25, for which the binding result is “binds”. Next, B26: “binds”; B27: “binds”; B28: “binds”. Next, B29: “binds”; B30: “binds”; B31: “binds”. Next, B32: “binds”; B33: “binds”; B34: “binds”.

Consider B35, for which the binding result was “binds”. Next, B36: “binds”; B37: “binds”. Next, B38: “binds”; B39: “binds”.

For B40, the binding result was “binds”.

With B41, the binding result is “binds”.

On to B42, for which the binding result is on record as “binds”. Next, B43: “binds”; B44: “binds”. Next, B45: “binds”.

As to B46, the binding result is reported as “binds”. Next, B47: “binds”; B48: “binds”. With B49, the binding result is given as “binds”. Next, B50: “binds”. For the molecule B51, the binding result is given as “binds”. Next, B52: “binds”; B53: “binds”.
